Laboratory results reported in patent US7384773 (Pfizer, dated 2008).
Non-standard residues stand in square brackets, D forms with d. No end group written: not given here. Sta = CC(C)C[C@H](N)[C@@H](O)CC(=O)O

Molecular target: T1, CHO cell expressed recombinant human beta secretase proteolytically cleaved with HIV protease (human, UniProt P56817 61-453, glycosylated (CHO cell expressed))
T1 construct: N-terminus at V40 after cleavage of the F39-V40 bond; The transmembrane and cytoplasmic domains are deleted; also called HIV protease treated beta secretase; processed enzyme
Assay: affinity chromatography, peptide immobilised on resin

T1 sequence (P56817 other isoform, or with tags, fused parts or gaps): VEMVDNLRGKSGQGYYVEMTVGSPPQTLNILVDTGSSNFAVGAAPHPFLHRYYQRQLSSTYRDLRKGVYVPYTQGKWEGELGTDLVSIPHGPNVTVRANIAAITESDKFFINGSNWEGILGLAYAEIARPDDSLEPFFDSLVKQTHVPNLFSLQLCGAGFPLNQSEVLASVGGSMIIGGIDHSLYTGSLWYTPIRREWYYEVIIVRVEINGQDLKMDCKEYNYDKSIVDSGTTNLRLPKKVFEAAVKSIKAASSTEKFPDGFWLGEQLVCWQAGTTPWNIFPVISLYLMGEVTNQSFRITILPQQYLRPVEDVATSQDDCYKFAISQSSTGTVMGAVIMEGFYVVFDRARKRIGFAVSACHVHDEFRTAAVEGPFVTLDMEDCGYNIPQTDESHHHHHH

B1: synthetic peptide Ser-Glu-Val-Asn-Sta-Val-Ala-Glu-Phe-Arg-Gly-Gly-Cys (Sta=statine) (peptide)
peptide: SEVN[Sta]VAEFRGGC
modifications: also: coupled to Sulfolink resin (via Cys)
binding result: binds
